Earlier results, collected in doi:10.1101/2024.07.26.605324.
Several values for one entry are separate records, joined by “and”; a condition that tells them apart may be missing. Identical values can stand only once.

Biological target: His27 (position 27, …)
Assay: NMR
Conditions: 243–263 K; membrane-bound tetramer, wild type with both His19 and His27 tetrads

For MLEPFQILSICSFILSALHFIAWTIGHLNQIKR [Influenza B virus matrix protein 2 (BM2) proton channel (Influenza B virus)], which pKa is on record?
The pKa was 5.9±0.1 and 5.8±0.1.
